# Measured values reported in patent US20240043504A1 (published 2024).
# T1: MERS-CoV (NCoV/Novel coronavirus) Spike Protein fragment (RBD, aa 367-606, His Tag) (Sino 40071-V08B1) (MERS-CoV, UniProt K9N5Q8 367-606)
# T1 sequence: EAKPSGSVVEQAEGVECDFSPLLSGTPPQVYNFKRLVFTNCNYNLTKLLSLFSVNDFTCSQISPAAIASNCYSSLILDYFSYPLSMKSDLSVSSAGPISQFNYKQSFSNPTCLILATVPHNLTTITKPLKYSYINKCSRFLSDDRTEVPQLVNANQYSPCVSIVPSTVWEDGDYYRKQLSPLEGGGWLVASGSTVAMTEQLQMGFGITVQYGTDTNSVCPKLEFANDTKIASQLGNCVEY
# T2: MERS-CoV (NCoV/Novel coronavirus) Spike Protein (ECD, aa 1-1297, His Tag) (Sino 40069-[change]) (MERS-CoV, UniProt K9N5Q8 18-1297)
# T2 sequence: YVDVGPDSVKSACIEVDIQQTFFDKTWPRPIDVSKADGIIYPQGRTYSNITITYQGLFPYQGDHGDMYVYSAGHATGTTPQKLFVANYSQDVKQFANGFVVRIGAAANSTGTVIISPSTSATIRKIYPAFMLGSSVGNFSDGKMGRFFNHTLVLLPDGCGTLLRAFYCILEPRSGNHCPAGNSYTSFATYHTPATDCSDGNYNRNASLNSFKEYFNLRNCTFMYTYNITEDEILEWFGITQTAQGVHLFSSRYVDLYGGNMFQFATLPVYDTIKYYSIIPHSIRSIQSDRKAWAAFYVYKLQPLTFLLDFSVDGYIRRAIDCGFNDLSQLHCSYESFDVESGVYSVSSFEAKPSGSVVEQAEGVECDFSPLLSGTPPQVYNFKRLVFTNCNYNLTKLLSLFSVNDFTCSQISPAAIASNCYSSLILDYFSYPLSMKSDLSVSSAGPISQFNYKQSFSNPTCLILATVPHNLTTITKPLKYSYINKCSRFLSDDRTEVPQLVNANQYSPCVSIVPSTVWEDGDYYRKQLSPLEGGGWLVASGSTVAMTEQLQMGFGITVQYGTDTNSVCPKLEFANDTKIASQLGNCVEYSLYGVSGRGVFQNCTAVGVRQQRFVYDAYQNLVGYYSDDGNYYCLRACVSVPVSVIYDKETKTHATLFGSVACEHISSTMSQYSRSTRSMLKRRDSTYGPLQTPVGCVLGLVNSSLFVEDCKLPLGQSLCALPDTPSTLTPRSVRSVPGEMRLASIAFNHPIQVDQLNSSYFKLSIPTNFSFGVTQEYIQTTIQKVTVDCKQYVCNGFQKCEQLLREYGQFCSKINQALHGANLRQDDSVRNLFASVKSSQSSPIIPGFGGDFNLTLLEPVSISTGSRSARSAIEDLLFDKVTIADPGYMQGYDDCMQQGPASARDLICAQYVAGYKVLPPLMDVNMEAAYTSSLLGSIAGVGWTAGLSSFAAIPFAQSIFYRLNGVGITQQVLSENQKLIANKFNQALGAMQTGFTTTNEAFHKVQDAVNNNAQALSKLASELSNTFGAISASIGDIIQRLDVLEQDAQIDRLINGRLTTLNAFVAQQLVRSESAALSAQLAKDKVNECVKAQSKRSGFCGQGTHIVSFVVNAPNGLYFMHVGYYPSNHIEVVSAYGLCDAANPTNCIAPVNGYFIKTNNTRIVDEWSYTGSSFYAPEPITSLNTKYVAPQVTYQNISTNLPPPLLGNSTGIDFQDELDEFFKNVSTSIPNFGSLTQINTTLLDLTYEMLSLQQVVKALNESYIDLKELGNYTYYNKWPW
# T3: MERS-CoV (NCoV/Novel coronavirus) Spike Protein S2 (aa 726-1296, His Tag) (Sino 40070-[change]) (MERS-CoV, UniProt K9N5Q8 726-1296)
# T3 sequence: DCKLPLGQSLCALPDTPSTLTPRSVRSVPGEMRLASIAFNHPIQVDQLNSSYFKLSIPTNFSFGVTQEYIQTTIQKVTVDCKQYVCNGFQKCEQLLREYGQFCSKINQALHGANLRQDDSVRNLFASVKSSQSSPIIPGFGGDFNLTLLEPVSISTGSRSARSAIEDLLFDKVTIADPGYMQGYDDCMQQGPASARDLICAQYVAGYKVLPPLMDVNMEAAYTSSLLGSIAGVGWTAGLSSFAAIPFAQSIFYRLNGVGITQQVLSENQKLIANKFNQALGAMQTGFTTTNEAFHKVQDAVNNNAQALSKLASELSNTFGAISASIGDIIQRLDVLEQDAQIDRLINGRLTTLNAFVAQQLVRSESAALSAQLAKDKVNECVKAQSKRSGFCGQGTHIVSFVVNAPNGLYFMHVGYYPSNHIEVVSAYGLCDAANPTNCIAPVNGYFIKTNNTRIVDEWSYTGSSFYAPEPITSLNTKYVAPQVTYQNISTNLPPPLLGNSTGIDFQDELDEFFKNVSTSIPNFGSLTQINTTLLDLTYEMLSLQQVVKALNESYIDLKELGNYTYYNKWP
# Legend:
# Assay in all cases: Luminex bead binding, supernatant
# [1] = molecular target: Bt-SARS-CoV-2 Spike Protein (RBD)(R319-F541).mFc (mAb10621-L2) (SARS-CoV-2)
# [2] = molecular target: Human SARS Coronavirus Spike S1 Subunit Protein (His Tag) (Sino 40150-V08B1) (Human SARS Coronavirus, UniProt P59594 14-667)
# [3] = molecular target: SARS-CoV-2 Spike Protein (RBD)(R319-F541).hFc (mAb10622-L1) (SARS-CoV-2)
# [4] = molecular target: T1, MERS-CoV (NCoV/Novel coronavirus) Spike …
# [5] = molecular target: T2, MERS-CoV (NCoV/Novel coronavirus) Spike …
# [6] = molecular target: SARS-CoV-2 Spike Protein (RBD)(R319-F541).mFc (mAb10621-L1) (SARS-CoV-2)
# [7] = molecular target: T3, MERS-CoV (NCoV/Novel coronavirus) Spike …
binder,measurement,setting,value
"mAb11008 (antibody, V domains shown) VH: EVQLVESGGGLVQPGGSLRLSCAASGFTVSSNYMTWVRQAPGKGLEWVSVIYSGGSTFYADSVKGRFTISRHNSENTLYLQMNSLRAEDTAVYYCARDLAAAGTDYWGQGALVTVSS VL: DIQLTQSPSFLSASVGDRVTITCWASQGISSYLAWYQQKPGKAPKLLIYAASTLQSGVPSRFSGSGSGTEFTLTISSLQPDDFATYYCQHLNSYLYTFGQGTKLEIK",Binding signal (MFI),[1],3050 MFI
same,Binding signal (MFI),[2],31 MFI
same,Binding signal (MFI),[3],2570 MFI
same,Binding signal (MFI),[4],20 MFI
same,Binding signal (MFI),[5],18 MFI
same,Binding signal (MFI),[6],4260 MFI
same,Binding signal (MFI),[7],16 MFI
